Where “and” joins values, the source holds several entries; their conditions need not be identical. Equal values may be shown once.
Key:
[1] = system: Homo sapiens GDP-Mannose 4,6-dehydratase (GMD) and GDP-fucose transporter 1 (GFT) mRNA; assay: Inhibition of antibody fucosylation in HEK cell pools, amiRNA directed toward GMD and GFT; format: cell-based; details: HEK pool
From the text: A second multi-hairpin amiRNA gene was designed to target both Homo sapiens GDP-Mannose 4,6-dehydratase (GMD) with mRNA sequence given by SEQ ID NO: 8, and GDP-fucose transporter 1 (GFT) with mRNA sequence given by SEQ ID NO: 9. The multi-hairpin amiRNA, with nucleotide sequence SEQ ID NO: 204, comprised four hairpins; the first hairpin comprised guide strand sequence SEQ ID NO: 47 (complementary to the mRNA for human GMD, with sequence SEQ ID NO: 8), immediately followed by loop sequence SEQ ID NO: 241 and passenger strand sequence SEQ ID NO: 132; the second hairpin comprised guide strand sequence SEQ ID NO: 52 (complementary to the mRNA for human GFT, with sequence given by SEQ ID NO: 9), immediately followed by loop sequence SEQ ID NO: 241 and passenger strand sequence SEQ ID NO: 137; the third hairpin comprised guide strand sequence SEQ ID NO: 50 (complementary to the mRNA for human GFT, with sequence SEQ ID NO: 9), immediately followed by loop sequence SEQ ID NO: 241 and passenger strand sequence SEQ ID NO: 135 and the fourth hairpin comprised guide strand sequence SEQ ID NO: 49 (complementary to the mRNA for human GMD, with sequence given by SEQ ID NO: 8), immediately followed by loop sequence SEQ ID NO: 241 and passenger strand sequence SEQ ID NO: 134. Each passenger strand sequence was complementary to its corresponding guide strand sequence, except that the bases in the passenger strand sequences corresponding to the 5′ base of the guide strand and the twelfth base of the guide strand were changed to be non-complementary. The first and twelfth bases of guide strand with SEQ ID NO: 47 are T and G respectively, the corresponding bases in the corresponding passenger strand sequence SEQ ID NO: 132 are C and A respectively. […]
The multi-hairpin amiRNA sequences were placed to the 3′ of an open reading frame encoding a red fluorescent protein (with nucleotide sequence SEQ ID NO: 279) and followed by a rabbit globin polyadenylation sequence. […]

[2] = system: Cricetulus griseus GDP-Mannose 4,6-dehydratase (GMD), and GDP-fucose transporter 1 (GFT) mRNA; assay: Inhibition of antibody fucosylation in CHO with amiRNA targeting GMD and GFT; format: cell-based; details: 14-day fed batch
From the text: A multi-hairpin amiRNA gene was designed to target both Cricetulus griseus GDP-Mannose 4,6-dehydratase (GMD), and GDP-fucose transporter 1 (GFT). […]
Multi-hairpin amiRNA sequence with SEQ ID NO: 200 was placed to the 3′ of an open reading frame encoding a red fluorescent protein (with nucleotide sequence SEQ ID NO: 279) and followed by a rabbit globin polyadenylation sequence. […]

Row | Molecule | G0 + G1 % (area) ([1]; afucosylated antibody, 7-day transient culture) | Titer ([1]; antibody in culture supernatant, 7-day culture, listed as 204) | G0F + G1F (% area) ([1]; fucosylated antibody, 7-day transient culture, BDL=below detection limit, listed as 204) | G0 + G1 % (area) ([2]; afucosylated antibody heavy chain, CMV promoter) | G0F + G1F (% area) ([2]; fucosylated antibody heavy chain, BDL=below detection limit, listed as 200)
1 | SEQ ID NO: 204: four-hairpin amiRNA, two guides to Homo sapiens GMD mRNA (47, 49) and two to GFT mRNA (52, 50) (nucleic acid) ATCTGATCTTCTGAAGAAAATATATTTCTTTTTATTCATAGCTCTTAACTAGTGGTGATAGCAATGTCAGCAGTGCCTTAAAACATCTTGATTTCACAAAGTGAAGCCACAGATGTTTGTGAAATAAAGATGTTTTCAAGTAAGGTTGACCATACTCTACTCTAGTTATATTCTTTAGGCACGAATGTGTGTTTAAAAAAAATAAAAACTAGTGGTGATAGCAATGTCAGCAGTGCCTTATTACTTGTAAACACTGGTTCGTGAAGCCACAGATGGAACCAGTGTCTACAAGTAATCAAGTAAGGTTGACCATACTCTACTCTAGAGTTGTGTTTTAATGTATATTAATGTTACTAATGTGTTTACTAGTGGTGATAGCAATGTCAGCAGTGCCTTTCACTACTGTGCTGGCCCCGCGTGAAGCCACAGATGGCGGGGCCAGAACAGTAGTGACAAGTAAGGTTGACCATACTCTACTCTAGGTTATTTTTAGTATGATTCTGTAAAAATGAATTAATACTAACTAGTGGTGATAGCAATGTCAGCAGTGCCTTTGTTGTGTAACAACATAATTTGTGAAGCCACAGATGAAATTATGTTATTACACAACACAAGTAAGGTTGACCATACTCTACTCTAGTCAGTTTTATTGATAGTCTTTTCAGTATTATTGATAATCTT | 100 % (area) | 126 mg/L and 120 mg/L | complete abolition of antibody fucosylation and BDL |  | 
2 | SEQ ID NO: 200: four-hairpin amiRNA, two guides to Cricetulus griseus GMD mRNA (35, 36) and two to GFT mRNA (41, 42) (nucleic acid) ATCTGATCTTCTGAAGAAAATATATTTCTTTTTATTCATAGCTCTTAACTAGTGGTGATAGCAATGTCAGCAGTGCCTTTAAACTTCTTGATTTCCCAAAGTGAAGCCACAGATGTTTGGGAAATAAAGAAGTTTACAAGTAAGGTTGACCATACTCTACTCTAGTTATATTCTTTAGGCACGAATGTGTGTTTAAAAAAAATAAAAACTAGTGGTGATAGCAATGTCAGCAGTGCCTTCCTCTTAGATCATATTCCAAGGTGAAGCCACAGATGCTTGGAATATAATCTAAGAGGCAAGTAAGGTTGACCATACTCTACTCTAGAGTTGTGTTTTAATGTATATTAATGTTACTAATGTGTTTACTAGTGGTGATAGCAATGTCAGCAGTGCCTTTCAAGTAAAATGAGTATGTGAGTGAAGCCACAGATGTCACATACTCCTTTTACTTGACAAGTAAGGTTGACCATACTCTACTCTAGGTTATTTTTAGTATGATTCTGTAAAAATGAATTAATACTAACTAGTGGTGATAGCAATGTCAGCAGTGCCTTCAATTAGTGGGATCACAACCCGTGAAGCCACAGATGGGGTTGTGATACCACTAATTGCAAGTAAGGTTGACCATACTCTACTCTAGTCAGTTTTATTGATAGTCTTTTCAGTATTATTGATAATCTT |  |  |  | 100 % (area) | no fucose was detectable by mass spectroscopy and BDL

Reference: patent US20230313187A1, “MODIFICATIONS OF MAMMALIAN CELLS USING ARTIFICIAL MICRO-RNA TO ALTER THEIR PROPERTIES AND THE COMPOSITIONS OF THEIR PRODUCTS” (DNA TWOPOINTO INC., priority 2020, published 2023)
